Reference: patent US20100035825

Experiments:
Ac-KE^217VD-CHO = target: T1, Ac-KE^217VD-CHO
T1 chain: KEVD

Ac-KKPD^105-CHO = target: T2, Ac-KKPD^105-CHO
T2 chain: KKPD

B1: purified recombinant procaspase 8 (human, Alexis Biochemicals) (protein)
chain: SESQTLDKVYQMKSKPRGYCLIINNHNFAKAREKVPKLHSIRDRNGTHLDAGALTTTFEELHFEIKPHDDCTVEQIYEILKIYQLMDHSNMDCFICCILSHGDKGIIYGTDGQEAPIYELTSQFTGLKCPSLAGKPKVFFIQACQGDNYQKGIPVETDSEEQPYLEMDLSSPQTRYIPDEADFLLGMATVNNCVSYRNPAEGTWYIQSLCQSLRERCPRGDDILTILTEVNYEVSNKDDKKNMGKQMPQPTFTLRKKLVFPSD
- in vitro self-activation of caspase 8 (colorimetric substrate, tetrapeptides at 200 µM) (Ac-KE^217VD-CHO): inhibited
- in vitro self-activation of caspase 8 (colorimetric substrate, tetrapeptides at 200 µM) (Ac-KKPD^105-CHO): inhibited
